Values quoted from earlier work in article PMC3405059.

Target: MSPβ beta chain (Homo sapiens) (UniProt P26927)
Test: SPR

Chain of UniProt P26927 (P26927 484-711): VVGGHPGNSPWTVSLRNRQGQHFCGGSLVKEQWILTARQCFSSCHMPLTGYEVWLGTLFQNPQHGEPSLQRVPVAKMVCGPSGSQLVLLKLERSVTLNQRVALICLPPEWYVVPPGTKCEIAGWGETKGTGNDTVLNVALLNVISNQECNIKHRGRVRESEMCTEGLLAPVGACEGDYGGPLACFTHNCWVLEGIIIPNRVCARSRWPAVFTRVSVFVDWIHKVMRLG

With RON ECD (from UniProt Q04912) as the substance, how does the Kd read?
Its Kd is 13 nM.
